Legend:
[1] = test system: glyphosate-resistant Waterhemp (Amaranthus rudis); test: Sensitization of glyphosate-resistant Waterhemp to glyphosate by topical dsRNA trigger (Example 3); assay type: in vivo; settings: 8 nmol trigger; glyphosate 1.5 lb/ac one day after; 14 DAT; compared to plants treated with glyphosate alone
Description: The efficacies of mid-sized polynucleotide trigger molecules comprising SEQ ID NOs: 3 and 4 or SEQ ID NOs: 5 and 6, were assessed in glyphosate-resistant Waterhemp (Amaranthus rudis) in relation to a 24-mer trigger comprising SEQ ID NOs: 7 and 8. dsRNA triggers comprising polynucleotide sequences of SEQ ID NOs: 3 and 4, SEQ ID NOs: 5 and 6, and SEQ ID NOs: 7 and 8 were produced and the triggers were each formulated with 0.5% SILWET® L-77, 2% AMS, and 20 mM phosphate buffer to a concentration of 8 nmol. The trigger formulations were then topically applied to the leaves of glyphosate-resistant Waterhemp. Control plants were either untreated or treated with a solution of 0.5% SILWET® L-77, 2% AMS, and 20 mM phosphate buffer. One day after treatment with the trigger formulation, WEATHERMAX® brand glyphosate herbicide was applied to the plants at 1.5 lb/ac. Four replications were performed per treatment. The fresh weight of the plants was determined 14 DAT with EPSPS trigger polynucleotides and the fresh weight % compared to control plants (treated with WEATHERMAX® brand glyphosate herbicide alone) was calculated.

[2] = test system: glyphosate-resistant Amaranthus palmeri plants (“R-22”); test: Sensitization of glyphosate-resistant Palmer amaranth to glyphosate by topical dsRNA trigger, then WEATHERMAX glyphosate; assay type: in vivo; settings: glyphosate 1.5 lb/ac one day after, four replications
Description: Double stranded RNA (dsRNA) triggers comprising polynucleotide sequences of SEQ ID NOs: 3 and 4, SEQ ID NOs: 5 and 6, and SEQ ID NOs: 7 and 8 were produced and the triggers were formulated with 0.5% SILWET® L-77, 2% AMS, and 20 mM phosphate buffer to the desired concentration. The trigger formulations were then topically applied to the leaves of glyphosate-resistant Amaranthus palmeri plants (“R-22”). Control plants were either untreated or treated with the 0.5% SILWET® L-77, 2% AMS, and 20 mM phosphate buffer solution. One day after treatment, WEATHERMAX® brand glyphosate herbicide (RU Wmax, Monsanto, St Louis, Mo.) was applied to the plants at 1.5 lb/ac. 11 days after treatment (DAT) with EPSPS trigger polynucleotides the percent growth reduction of the dsRNA treated plants was assessed relative to untreated control plants by visual score. At 14 DAT the fresh weight of the dsRNA treated and control plants were determined. Four replications were performed per treatment. […] See also FIG. 1.

[3] = test system: glyphosate-resistant Amaranthus palmeri plants (“R-22”); settings: stated as known; cited from earlier work
[4] = test system: glyphosate-resistant Waterhemp plants (“WH13”); settings: stated as known; cited from earlier work
[5] = test system: glyphosate-resistant Waterhemp plants (“WH13”); test: Tiling of EPSPS cDNA: dsRNA trigger testing with glyphosate, fresh weight (Example 7, FIG. 4); assay type: in vivo; settings: 8 nmol trigger, glyphosate 1.5 lb/ac one day after, 14 days after treatment, three replications
Description: The EPSPS cDNA of SEQ ID NO: 1 was tiled across the entire length of the cDNA to identify target sequences for bioactive trigger polynucleotides covering as shown in Table 5. The target nucleotide sequence were chosen to be approximately 47-62 bp in length. Bioactive trigger polynucleotides comprising a nucleotide sequence having at least 85% identity or complementarity to SEQ ID NOs: 36-66 were tested for the ability to sensitize glyphosate-resistant Waterhemp to glyphosate.
Double stranded RNA (dsRNA) triggers comprising polynucleotide sequences corresponding to SEQ ID NOs: 36-62 were produced and the bioactive trigger polynucleotides were formulated with 0.5% SILWET® L-77, 2% AMS, and 20 mM phosphate buffer to a final concentration of 8 nmol. The trigger formulations were then topically applied to the leaves of glyphosate-resistant Waterhemp plants (“WH13”). Control plants were either untreated or treated with the formulation 0.5% SILWET® L-77, 2% AMS, and 20 mM phosphate “buffer” solution. Additionally dsRNA comprising SEQ ID NOs: 7 and 8 (24-mer EPSPS trigger) was applied as a control. One day after treatment, WEATHERMAX® brand glyphosate herbicide (RU Wmax, Monsanto, St Louis, Mo.) was applied to the plants at 1.5 lb/ac.
Three replications were performed per treatment.

[6] = test system: glyphosate-resistant Waterhemp plants (“WH13”); test: Sensitization of glyphosate-resistant Waterhemp WH13 to glyphosate, 2-16 nmol trigger (Example 5, FIG. 3); assay type: in vivo; settings: 2, 4, 8 or 16 nmol trigger, glyphosate 1.5 lb/ac one day after, plants at 14 days after treatment
Description: The efficacies of mid-sized bioactive polynucleotide trigger molecules
Double stranded RNA (dsRNA) triggers comprising polynucleotide sequences of SEQ ID NOs: 3 and 4, SEQ ID NOs: 5 and 6, and SEQ ID NOs: 7 and 8 were produced and the bioactive trigger polynucleotides were formulated with 0.5% SILWET® L-77, 2% AMS, and 20 mM phosphate buffer to a concentration of 2 nmol, 4 nmol, 8 nmol or 16 nmol. The trigger formulations were then topically applied to the leaves of glyphosate-resistant Waterhemp plants (“WH13”). Control plants were either untreated or treated with the 0.5% SILWET® L-77, 2% AMS, and 20 mM phosphate buffer solution. One day after treatment, WEATHERMAX® brand glyphosate herbicide (RU Wmax, Monsanto, St Louis, Mo.) was applied to the plants at 1.5 lb/ac. Four replications were performed per treatment.

EPSPS mRNA = EPSPS mRNA reduction in Palmer protoplasts; assay type: cell-based; settings: 6 ug dose of dsRNA trigger; Amaranthus palmeri protoplasts; FIG. 2
Description: The activities of mid-sized bioactive polynucleotide trigger molecules corresponding to SEQ ID NOs: 3 and 4 or SEQ ID NOs: 5 and 6 were assessed in Amaranthus palmeri protoplasts. A 6 ug dose of each dsRNA trigger (SEQ ID NO 3/4 or SEQ ID NO 5/6) was added to Amaranthus palmeri protoplasts.

Row | Molecule | % Control Fresh wt. average [1] | visual 11-DAT Average (percent growth reduction relative to untreated control plants by visual score) ([2]; 2 nmole trigger) | Fresh weight 14-DAT Average ([2]; 2 nmole trigger) | visual 11-DAT Average (percent growth reduction relative to untreated control plants by visual score) ([2]; 4 nmole trigger) | Fresh weight 14-DAT Average ([2]; 4 nmole trigger) | visual 11-DAT Average (percent growth reduction relative to untreated control plants by visual score) ([2]; 8 nmole trigger) | Fresh weight 14-DAT Average ([2]; 8 nmole trigger) | visual 11-DAT Average (percent growth reduction relative to untreated control plants by visual score) ([2]; 16 nmole trigger) | Fresh weight 14-DAT Average ([2]; 16 nmole trigger) | sensitization of glyphosate-resistant Palmer amaranth to glyphosate, prior knowledge (in words) [3] | sensitization of glyphosate-resistant Waterhemp to glyphosate, prior knowledge (in words) [4] | efficacy in sensitizing glyphosate-resistant Waterhemp to glyphosate (in words, from fresh weight) [5] | sensitization of glyphosate-resistant Waterhemp plants to glyphosate (in words) [6] | EPSPS mRNA reduction vs. control (EPSPS mRNA)
1 | SEQ ID NO 7/8: dsRNA 24mer EPSPS Trigger (SEQ ID NO 7) and Reverse Complement (SEQ ID NO 8), known to sensitize glyphosate-resistant weeds; control (sense AUGCCAGAUGUUGCUAUGACUCUU; antisense AAGAGUCAUAGCAACAUCUGGCAU; listed as RNA, chemistry not given here) [reference compound] | 85% | 47.5% | 19.0 | 88.8% | 95.3 | 90.0% | 91.8 | 85.8% | 93.7 | known to sensitize glyphosate-resistant Palmer amaranth to glyphosate | known to sensitize glyphosate-resistant Waterhemp to glyphosate |  |  | 
2 | SEQ ID NO 3/4: dsRNA trigger: 50mer EPSPS Trigger (SEQ ID NO 3) and Reverse Complement (SEQ ID NO 4), positions 398-447 of Amaranthus palmeri EPSPS cDNA (nucleic acid, double-stranded RNA trigger, further chemistry not given here) sense: GAACUCUUGGUUUAAAAGUGGAGGAUGAUAGUACAGCCAAAAGGGCAGUC antisense: GACUGCCCUUUUGGCUGUACUAUCAUCCUCCACUUUUAAACCAAGAGUUC | 78% | 46.3% | 24.0 | 28.8% | 94.7 | 88.3% | 88.4 | 90.0% | 97.0 |  |  | good efficacy | sensitize glyphosate-resistant Waterhemp plants to glyphosate | 69%
3 | SEQ ID NO 5/6: dsRNA trigger: 53mer EPSPS Trigger (SEQ ID NO 5) and Reverse Complement (SEQ ID NO 6), positions 1189-1241 of Amaranthus palmeri EPSPS cDNA (nucleic acid, double-stranded RNA trigger, further chemistry not given here) sense: GACGUCAACAUGAACAAAAUGCCAGAUGUUGCUAUGACUCUUGCAGUUGUUGC antisense: GCAACAACUGCAAGAGUCAUAGCAACAUCUGGCAUUUUGUUCAUGUUGACGUC | 83% | 48.8% | 18.2 | 41.3% | 94.0 | 93.8% | 96.2 | 81.3% | 90.7 |  |  | good efficacy | sensitize glyphosate-resistant Waterhemp plants to glyphosate | 84%

Source: patent US10334848B2, “Methods and compositions for weed control using EPSPS polynucleotides” (Monsanto Technology LLC, priority 2014, dated 2019)
